Two proteins from publication PMC5138414, “Structural Basis for Redox Regulation of Cytoplasmic and Chloroplastic Triosephosphate Isomerases from Arabidopsis thaliana” (Frontiers in Plant Science, 2016) can be followed below.

Substrate in this series: O=CC(O)COP(=O)(O)O
In words: purified protein. The class given is biochemical, Arabidopsis thaliana. Conditions: G3P to DHAP direction, 0-4.0 mM G3P (DL-G3P supplied), TEA pH 7.4, 10 mM EDTA, 0.01% BSA, 0.2 mM NADH, apparent constant.

B1: pdTPI (Arabidopsis thaliana) (protein)
chain: MAGSGKFFVGGNWKCNGTKDSIAKLISDLNSATLEADVDVVVSPPFVYIDQVKSSLTDRIDISGQNSWVGKGGAFTGEISVEQLKDLGCKWVILGHSERRHVIGEKDEFIGKKAAYALSEGLGVIACIGEKLEEREAGKTFDVCFAQLKAFADAVPSWDNIVVAYEPVWAIGTGKVASPQQAQEVHVAVRGWLKKNVSEEVASKTRIIYGGSVNGGNSAELAKEEDIDGFLVGGASLKGPEFATIVNSVTSKKVAA
notes: homodimer
With B1, the Km (as a rule, the concentration of substrate that gives half-maximal velocity) was found to be 400 ± 20 µM; the kcat (usually the number of substrate molecules converted per active site and unit of time at saturation) amounted to 2340 ± 41.6 s⁻¹; the kcat/Km (commonly the second-order rate constant that governs catalysis at low substrate concentration) was 5.84e+06 M⁻¹ s⁻¹.

B2: cTPI (Arabidopsis thaliana) (protein)
chain: MARKFFVGGNWKCNGTAEEVKKIVNTLNEAQVPSQDVVEVVVSPPYVFLPLVKSTLRSDFFVAAQNCWVKKGGAFTGEVSAEMLVNLDIPWVILGHSERRAILNESSEFVGDKVAYALAQGLKVIACVGETLEEREAGSTMDVVAAQTKAIADRVTNWSNVVIAYEPVWAIGTGKVASPAQAQEVHDELRKWLAKNVSADVAATTRIIYGGSVNGGNCKELGGQADVDGFLVGGASLKPEFIDIIKAAEVKKSA
notes: homodimer
For B2, the Km is 480 ± 50 µM, the kcat came to 2560 ± 43.9 s⁻¹ and the kcat/Km was found to be 5.34e+06 M⁻¹ s⁻¹.
